# Patent US7960548B2, “Keratinocyte growth factor receptor—tyrosine specific inhibitors for the prevention of cancer metastatis” (The Ohio State University Research Foundation, priority 2005, dated 2011)
# B1: KGF: recombinant human Keratinocyte Growth Factor, member of the fibroblast growth factor family (FGF-7) (protein, UniProt P21781 32-194, looked up)
# Fibroblast growth factor 7: CNDMTPEQMATNVNCSSPERHTRSYDYMEGGDIRVRRLFCRTQWYLRIDKRGKVKGTQEMKNNYNIMEIRTVAVGIVAIKGVESEFYLAMNKEGKLYAKKECNEDCNFKELILENHYNTYASAKWTHNGGEMFVALNQKGIPVRGKKTKKEQKTAHFLPMAIT
# Columns and labels:
# MCF-7 cells [1] = assay: KGF-mediated motility of MCF-7 cells with TK signaling pathway inhibitors; type: cell-based, human
# Excerpt: (§1) In order to define the signaling pathway involved in the KGF-mediated breast cancer cell motility, we have examined the influence of inhibitors of intermediates in the TK signaling pathway (29, 30, 31). […] In addition, inhibition of Grb2, using a specific Grb2 antisense oligonucleotide, abolished KGF-mediated motility of MCF-7 cells (30, 31). […] Thus, we have observed that the KGFR-Erk1,2 pathway mediates KGF-induced cell motility in ER-positive breast cancer cells. Accordingly, inhibitors targeting the KGF/KGFR/Grb2/Erk1,2 pathway have the potential to be selective therapeutic or chemopreventive modalities against breast cancer metastasis. […] Thus we next considered the design of selective KGFR TK inhibitors to be examined in this study.
# MCF-7 human cancer cells = assay: Motility effect of KGF by time-lapse videomicroscopy and culture wounding; type: cell-based
# Excerpt: Based on this background information, we examined the motility effect of KGF on human breast cancer cells using time-lapse videomicroscopy and culture wounding (22, 23). […] The KGF motility effect is characterized by a rapid increase in ruffling of the plasma membrane and cell scattering. […] Scanning electron microscopy of KGF-treated MCF-7 cells confirmed dramatic changes in cell morphology consistent with active cell motility (FIG. 1). […] Changes in cell morphology, associated with membrane ruffling and motility are believed to be associated with cytoskeletal reorganization and necessary for adhesion foci, cell surface ligand-receptor binding and regulation of gene transduction (24, 25). Accordingly, we have previously observed a significant alteration in the distribution of f-actin in the cytoplasm of KGF stimulated MCF-7 cells (22).
# MCF-7 cells [2] = assay: MCF-7 nude mouse xenograft model, growth and metastasis (β-gal reporter); type: in vivo, female nu/nu balb/C mice
# Description: In these experiments 5×10^6 viable MCF-7 cells, transfected with a β-gal reporter plasmid, were embedded into 0.2 ml Matrigel and implanted into female nude mice. Four animal/group were treated with either KGF (2.5 μg/kg) or control vehicle every other day. After 21 days of treatment the tumor, lung and liver tissue were removed and assayed for b-gal activity using a CRPG substrate for β-gal.
# In order to determine the influence of KGF on tumor growth and development in vivo, we recently examined the effect of KGF treatment on the growth and metastasis of MCF-7 cells in a nude mouse xenograft model (27, 28). In these experiments 5×10^6 viable MCF-7 cells, transfected with a β-gal reporter plasmid, were embedded into 0.2 ml Matrigel and implanted into female nu/nu balb/C mice at 6 weeks of age. At 40 days after tumor cell implantation, when approximately 0.5 cm tumor masses were observed, animal were treated with either human recombinant KGF or control vehicle by intra-tumoral injections every other day for a period of 21 days. […] In tumor and tissue samples, collected at the end of the treatment period, the β-gal activity was used as a reported to quantify MCF-7 cells as previously described (27). […] However, in the connective tissue surrounding the tumors and in the lung and liver tissue samples, the β-gal activity was much greater in the KGF treated than in the control samples (FIG. 2) (28). The results of the present study indicate that KGF enhances the migration of breast cancer cells away from the tumor mass, resulting in measurable lung and liver metastasis within the 21 day treatment period.
# [3] = system: MDA-MB-231, SK-BR-3, BT-20; assay: KGF motility response of ER-negative cell lines; type: cell-based, human; settings: KGF 10-50 ng/ml
# MCF-7, T-47D, ZR-75-1 = assay: KGF motility response of ER-positive human breast cancer cell lines; type: cell-based; settings: KGF 10-50 ng/ml
# Description: In our previous experiments, all of the estrogen receptor (ER)-positive human breast cancer cell lines examined (MCF-7, T-47D, ZR-75-1) responded to KGF treatment (10-50 ng/ml); however, the responsiveness differed substantially among the cell lines tested.
# phospho-Erk1,2 = assay: Western blot of phospho-Erk1,2 in MCF-7 cells; type: cell-based, human; settings: 50 ng/ml KGF and/or inhibitor for 3 days
# Description: The cells were treated with 50 ng/ml KGF and/or signal transduction inhibitor for 3 days. Equal amounts of protein (10 μg) were loaded for SDS-PAGE analysis.
# as §1
Molecule,KGF-mediated motility of MCF-7 cells (MCF-7 cells [1]),duration of change in morphology of MCF-7 cells (MCF-7 human cancer cells),motility effect on MCF-7 cells (MCF-7 human cancer cells),perimeter index (PI) (MCF-7 human cancer cells),time of maximal KGF motility effect (MCF-7 human cancer cells),"β-gal activity in connective tissue surrounding the tumors, lung and liver (MCF-7 cells [2]; end of 21 day treatment)",β-gal activity in tumor tissue (MCF-7 cells [2]; end of 21 day treatment),"tumor volume (MCF-7 cells [2]; intra-tumoral injections every other day for 21 days, KGF 2.5 μg/kg)","enhancement in motility, ER-negative cell lines [3]","response to KGF treatment, ER-positive cell lines (MCF-7, T-47D, ZR-75-1)","phospho-Erk1,2 protein level (phospho-Erk1,2)"
O=c1c(-c2ccc(O)cc2)coc2cc(O)cc(O)c12 [genistein],completely abolished,–,–,–,–,–,–,–,–,–,–
COc1cccc(-c2cc(=O)c3ccccc3o2)c1N [PD98059],completely abolished,–,–,–,–,–,–,–,–,–,–
B1,–,at least 48 hours,cell scattering motility effect,dose-related increase,one,much greater,significantly less than in the controls,the same as in the control tumors,little or no enhancement,responded,increase
